# From paper PMC10184913
# Substrate: O=C(O)/C=C/c1ccccc1
# Experiment: cells, lysate or membranes
# Settings: 1 mM NADPH, 50 mM phosphate pH 7.6, 25°C, co-expressed LjCPR1
row,Protein,Km
1,GmC4H2 (Glycine max) (protein) MDLLLLEKTLIGLFLAAVVAIAVSTLRGRKFKLPPGPLPVPIFGNWLQVGDDLNHRNLTDLAKKFGDIFLLRMGQRNLVVVSSPELAKEVLHTQGVEFGSRTRNVVFDIFTGKGQDMVFTVYGEHWRKMRRIMTVPFFTNKVVQQYRHGWESEAAAVVEDVKKNPDAAVSGTVIRRRLQLMMYNNMYRIMFDRRFESEEDPIFQRLRALNGERSRLAQSFEYNYGDFIPILRPFLKGYLKICKEVKETRLKLFKDYFVDERKKLGSTKSTNNNNELKCAIDHILDAQRKGEINEDNVLYIVENINVAAIETTLWSIEWGIAELVNHPEIQQKLRDEIDRVLGAGHQVTEPDIQKLPYLQAVVKETLRLRMAIPLLVPHMNLHDAKLGGYDIPAESKILVNAWWLANNPAHWKKPEEFRPERFFEEESLVEANGNDFRYLPFGVGRRSCPGIILALPILGITLGRLVQNFELLPPPGQSQIDTSEKGGQFSLHILKHSTIVAKPRSF,6.438 ± 0.74 µM
2,GmC4H14 (Glycine max) (protein) MDLLLLEKTLIGLFLAAVVAIAVSTLRGRKFKLPPGPLPVPIFGNWLQVGDDLNHRNLTDLAKKFGDIFLLRMGQRNLVVVSSPELAKEVLHTQGVEFGSRTRNVVFDIFTGKGQDMVFTVYGEHWRKMRRIMTVPFFTNKVVQQYRHGWESEAAAVVEDVKNNPDAAVSGTVIRRRLQLMMYNNMYRIMFDRRFESEEDPIFQRLRALNGERSRLAQSFEYNYGDFIPILRPFLKGYLKICKEVKETRLKLFKDYFVDERKKLGSIKSSNNNELKCAIDHILDAQRKGEINEDNVLYIVENINVAAIETTLWSIEWGIAELVNHPEIQQKVRDEIDRVLEAGHQVTEPDIQKLPYLQAVVKETLRLRMAIPLLVPHMNLHDAKLGGYDIPAESKILVNAWWLANNPAHWKKPEEFRPERFLEEELHVEANGNDFRYLPFGVGRRSCPGIILALPILAITLGRLVQNFELLPPPGQSQIDTSEKGGQFSLHILKHSTIVAKPRSF,2.74 ± 0.18 µM
3,GmC4H20 (Glycine max) (protein) MGLQIKEPLLFTLVTISLISITKLLHSYFSIPFSPSNLSIAIATLIFVLISYKFSSSSIKHSSTTLPPGPLSVPIFGNWLQVGNDLNHRLLASMSQTYGPVFLLKLGSKNLVVVSDPELATQVLHAQGVEFGSRPRNVVFDIFTGNGQDMVFTVYGDHWRKMRRIMTLPFFTNKVVHNYSNMWEEEMDLVVRDLNVNERVRSEGIVIRRRLQLMLYNIMYRMMFDAKFESQEDPLFIQATRFNSERSRLAQSFEYNYGDFIPLLRPFLRGYLNKCKDLQSRRLAFFNTHYVEKRRQIMAANGEKHKISCAMDHIIDAQMKGEISEENVIYIVENINVAAIETTLWSIEWAVAELVNHPTVQSKIRDEISKVLKGEPVTESNLHELPYLQATVKETLRLHTPIPLLVPHMNLEEAKLGGHTVPKESKVVVNAWWLANNPSWWKNPEEFRPERFLEEECATDAVAGGKVDFRFVPFGVGRRSCPGIILALPILGLVIAKLVKSFQMSAPAGTKIDVSEKGGQFSLHIANHSTVLFHPIKTL,3.83 ± 0.44 µM
